# Data from patent US20230257714A1, “METHODS AND COMPOSITIONS FOR GENERATING HUMAN INDUCED MESENCHYMAL STEM CELLS” (SmartCella Solutions AB, priority 2022, published 2023).
# Key:
# iMSCs [1] = assay: quantitative real-time PCR of immunomodulatory marker genes in iMSCs treated with immune stimulators; format: cell-based, human; conditions: iMSCs 100k cells/sample; dsRNA 500 ng/sample or IFNr 10 ng/ml; 24 hours; particularly IDO1, TLR3 and HGF; control genes CD73, CD90, CD105 not upregulated; FIG. 5
# Protocol: In a first set of studies, iMSCs were treated with immune stimulators, either double-strand RNA (dsRNA) or recombinant human interferon gamma (IFNr)(R&D Systems, Cat. #35-IF-100). iMSCs (100k cells/sample) were cultured with dsRNA (500 ng/sample) or IFNr (10 ng/ml) for 24 hours. […] Immunostimulatory marker genes examined were: RIG1, TLR3, COX2, IDO1, HGF and TGF-beta. Control genes (for MSC surface markers) examined were: CD73, CD90 and CD105.
# iMSCs [2] = assay: IL-10 secretion by iMSCs after IFNr treatment (ELISA); format: cell-based, human; conditions: IFNr 20 ng/mL or 50 ng/mL for three days; media supernatant; FIG. 7
# Protocol: In a third set of experiments, the production of the anti-inflammatory factor IL-10 by the iMSCs was examined after treatment with IFNr. iMSCs (50k cells/well of a 24 well plate; approx. 25,000 cells/cm^2) were treated with low concentration (20 ng/mL) or high concentration (50 ng/mL) IFNr for three days to stimulate secretion of IL-10. The control group was the same culture conditions but without IFNr treatment. After three days, media supernatant was collected and the level of IL-10 secretion was quantified by standard ELISA analysis (human IL-10 Quantikine ELISA kit, R&D Systems, Cat. #D1000B).
molecule,measurement,setting,value
"IFNr: recombinant human interferon gamma (R&D Systems), immune stimulator (protein, UniProt P01579 24-161, looked up) Interferon gamma: QDPYVKEAENLKKYFNAGHSDVADNGTLFLGILKNWKEESDRKIMQSQIVSFYFKLFKNFKDDQSIQKSVETIKEDMNVKFFNSNKKKRDDFEKLTNYSVTDLNVQRKAIHELIQVMAELSPAAKTGKRKRSQMLFRG","expression of genes associated with immunostimulation (RIG1, TLR3, COX2, IDO1, HGF, TGF-beta)",iMSCs [1],increased expression
same,secretion of IL-10 by iMSCs,iMSCs [2],dose-dependent
